B1: WT (ligand)
chain: NTEILKSIDNEWRKTQCMPREVCIDVGKEFGAATNTFFKPPCVSVYRCGGCCNSEGLQCMNTSTGYLSKTLFEITVPLSQGPKPVTISFANHTSCRCMSKL
B2: Clone 15 (protein)
chain: B1 chain with C23A, A32V, N53I, G65S, L78I
B3: Clone 14 (protein)
chain: B1 chain with C23A, A32V, N53I, S54G, G65S
B4: Clone 21 (protein)
chain: B1 chain with C23A, A32V, S54G, G65S, L78I
B5: Clone 7 (protein)
chain: B1 chain with C23A, A32V, N53Q, G65S
B6: Clone 39 (protein)
chain: B1 chain with C23A, A32V, N53I, S54R, G65S
B7: Clone 16 (protein)
chain: B1 chain with C23A, A32V, N53I, S54G, G65S, L78I
B8: Clone 9 (protein)
chain: B1 chain with C23A, A32V, N53Q, G65S, L78I
B9: WT VEGFC (protein)
chain: B1 chain with A32V, G65S
B10: Clone 31 (protein)
chain: B1 chain with C23A, A32V, N53H, G65S
B11: Clone 10 (protein)
chain: B1 chain with C23A, A32V, N53Q, S54G, G65S, L78I
B12: Clone 13 (protein)
chain: B1 chain with C23A, A32V, N53I, G65S
B13: Clone 8 (protein)
chain: B1 chain with C23A, A32V, N53Q, S54G, G65S
B14: Clone 19 (protein)
chain: B1 chain with C23A, A32V, S54G, G65S

Positions count from the first letter of the chain named.

One may read the Kd as the concentration at which binding is half-saturated. A high value points to a looser complex. Usually EC50 stands for the midpoint of the concentration-response curve. Low values mean higher potency in that assay, high ones lower potency in that assay.

The target in one assay is VEGFR2. In words: SPR. (SPR reads the build-up and loss of mass on a sensor chip optically.)
B1 displayed a Kd of 0.227 nM.

For a further assay, the target named is VEGFR3. Briefly: SPR.
B1 came in with a Kd of 0.0107 nM.

The target of the next assay is T1, Human VEGFR-3 extracellular domain (amino acids 25-329), AviTag, hexahistidine tag, biotinylated (human, UniProt P35916 25-329, biotinylated with BirA ligase (AviTag)).
T1 chain (part 1 of 2): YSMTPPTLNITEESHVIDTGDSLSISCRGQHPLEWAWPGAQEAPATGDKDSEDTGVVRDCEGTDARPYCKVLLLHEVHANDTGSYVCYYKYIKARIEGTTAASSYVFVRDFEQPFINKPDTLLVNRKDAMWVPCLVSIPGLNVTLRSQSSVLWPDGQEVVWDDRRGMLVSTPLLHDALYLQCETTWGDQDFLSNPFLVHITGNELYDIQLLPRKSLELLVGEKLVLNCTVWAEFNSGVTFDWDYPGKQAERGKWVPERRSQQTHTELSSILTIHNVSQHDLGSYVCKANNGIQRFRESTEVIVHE
T1 chain (part 2 of 2): HHHHHH
Briefly: yeast display flow cytometry binding. On the technique in general: In flow cytometry, cells or beads pass a laser one at a time.
The molecule B2 displayed an EC50 of 21.5 nM.

Consider B3, for which the EC50 worked out at 74.5 nM.

Consider B4, for which the EC50 was 44.8 nM.

The molecule B5 displayed an EC50 of 71 nM.

On to B6, for which the EC50 came out at 104 nM.

With B7, it took 36.8 nM to reach a half-maximal effect (EC50).

For B8, the response was half-maximal at 65.7 nM (EC50).

Molecule B9 returned an EC50 of 34.8 nM.

B10 returned an EC50 of 94.5 nM.

B11 showed an EC50 of 65.5 nM.

With B12, the EC50 was found to be 32.3 nM.

B13 came in with an EC50 of 124 nM.

Molecule B14 displayed an EC50 of 51.3 nM.

The values are drawn from patent US20250188139A1 (published 2025).
